Test results reported in PMC3834070.

T1: FpPG.A274T (Fusarium phyllophilum) (UniProt Q07181)
T1 sequence: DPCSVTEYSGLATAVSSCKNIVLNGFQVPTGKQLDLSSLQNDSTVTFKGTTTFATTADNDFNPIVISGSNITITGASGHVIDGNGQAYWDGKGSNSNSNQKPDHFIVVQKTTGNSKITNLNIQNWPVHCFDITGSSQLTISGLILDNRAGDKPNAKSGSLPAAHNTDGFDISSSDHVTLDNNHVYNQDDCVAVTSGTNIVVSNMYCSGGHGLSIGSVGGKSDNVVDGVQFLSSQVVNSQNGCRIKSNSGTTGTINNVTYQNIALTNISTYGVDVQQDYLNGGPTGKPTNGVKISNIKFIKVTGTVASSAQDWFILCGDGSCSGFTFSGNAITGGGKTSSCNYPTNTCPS

T2: FpPG.S120N-N121K-S122D (Fusarium phyllophilum) (UniProt Q07181)
T2 sequence: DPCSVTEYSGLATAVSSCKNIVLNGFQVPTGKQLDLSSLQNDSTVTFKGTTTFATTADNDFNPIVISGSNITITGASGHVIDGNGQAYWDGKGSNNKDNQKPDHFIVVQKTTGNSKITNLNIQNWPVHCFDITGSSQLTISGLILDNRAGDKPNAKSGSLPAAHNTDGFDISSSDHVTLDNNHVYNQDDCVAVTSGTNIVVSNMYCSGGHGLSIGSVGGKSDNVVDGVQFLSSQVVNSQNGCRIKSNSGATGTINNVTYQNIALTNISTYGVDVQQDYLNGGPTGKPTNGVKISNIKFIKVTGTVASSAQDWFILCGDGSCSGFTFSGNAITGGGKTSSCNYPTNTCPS

T3: polygalacturonase of Fusarium phyllophilum (FpPG) (Fusarium phyllophilum) (UniProt Q07181)
T3 sequence: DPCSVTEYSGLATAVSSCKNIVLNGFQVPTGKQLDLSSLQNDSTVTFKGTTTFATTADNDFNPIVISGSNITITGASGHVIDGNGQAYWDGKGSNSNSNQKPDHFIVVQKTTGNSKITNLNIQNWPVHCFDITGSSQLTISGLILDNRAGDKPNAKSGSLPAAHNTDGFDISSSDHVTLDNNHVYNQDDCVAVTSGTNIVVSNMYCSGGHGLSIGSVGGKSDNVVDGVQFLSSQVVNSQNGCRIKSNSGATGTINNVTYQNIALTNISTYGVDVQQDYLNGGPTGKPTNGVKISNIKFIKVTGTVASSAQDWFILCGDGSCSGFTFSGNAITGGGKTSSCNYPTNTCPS

T4: FpPG.K310T (Fusarium phyllophilum) (UniProt Q07181)
T4 sequence: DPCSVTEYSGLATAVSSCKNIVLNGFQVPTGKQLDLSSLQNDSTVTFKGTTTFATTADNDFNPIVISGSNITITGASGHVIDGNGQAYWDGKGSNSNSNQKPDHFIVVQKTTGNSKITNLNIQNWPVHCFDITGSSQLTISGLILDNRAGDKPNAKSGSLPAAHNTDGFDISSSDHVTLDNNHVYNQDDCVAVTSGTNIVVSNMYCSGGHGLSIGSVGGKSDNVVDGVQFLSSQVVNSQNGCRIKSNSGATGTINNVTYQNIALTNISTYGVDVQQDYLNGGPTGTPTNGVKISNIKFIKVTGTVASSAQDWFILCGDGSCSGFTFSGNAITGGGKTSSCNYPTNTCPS

T5: FpPG.S363K (Fusarium phyllophilum) (UniProt Q07181)
T5 sequence: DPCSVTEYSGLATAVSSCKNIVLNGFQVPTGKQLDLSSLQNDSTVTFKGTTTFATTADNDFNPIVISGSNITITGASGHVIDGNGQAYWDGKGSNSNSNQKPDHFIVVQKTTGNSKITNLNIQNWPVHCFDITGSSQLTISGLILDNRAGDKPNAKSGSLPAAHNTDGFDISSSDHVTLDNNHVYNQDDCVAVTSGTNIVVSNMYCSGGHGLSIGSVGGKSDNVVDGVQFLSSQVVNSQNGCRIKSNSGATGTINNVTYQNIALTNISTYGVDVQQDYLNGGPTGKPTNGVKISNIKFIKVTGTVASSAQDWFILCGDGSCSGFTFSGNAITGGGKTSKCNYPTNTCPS

T6: FpPG.L303E (Fusarium phyllophilum) (UniProt Q07181)
T6 sequence: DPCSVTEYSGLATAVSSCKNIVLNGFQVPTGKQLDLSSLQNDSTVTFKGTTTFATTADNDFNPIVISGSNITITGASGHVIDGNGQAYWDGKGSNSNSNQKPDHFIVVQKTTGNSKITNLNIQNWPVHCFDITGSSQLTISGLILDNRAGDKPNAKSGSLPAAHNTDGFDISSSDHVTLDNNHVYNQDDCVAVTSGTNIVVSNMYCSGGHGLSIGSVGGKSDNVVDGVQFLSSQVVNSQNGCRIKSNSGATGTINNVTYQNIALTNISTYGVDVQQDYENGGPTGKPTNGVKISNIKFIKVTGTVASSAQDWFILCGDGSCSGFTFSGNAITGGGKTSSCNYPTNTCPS

B1: PG-inhibiting protein 2 of Phaseolus vulgaris pv Pinto (PvPGIP2) (natural protein)
chain: ELCNPQDKQALLQIKKDLGNPTTLSSWLPTTDCCNRTWLGVLCDTDTQTYRVNNLDLSGLNLPKPYPIPSSLANLPYLNFLYIGGINNLVGPIPPAIAKLTQLHYLYITHTNVSGAIPDFLSQIKTLVTLDFSYNALSGTLPPSISSLPNLVGITFDGNRISGAIPDSYGSFSKLFTSMTISRNRLTGKIPPTFANLNLAFVDLSRNMLEGDASVLFGSDKNTQKIHLAKNSLAFDLGKVGLSKNLNGLDLRNNRIYGTLPQGLTQLKFLHSLNVSFNNLCGEIPQGGNLQRFDVSAYANNKCLCGSPLPACT
B2: PvPGIP2.Q224E (natural protein)
chain: ELCNPQDKQALLQIKKDLGNPTTLSSWLPTTDCCNRTWLGVLCDTDTQTYRVNNLDLSGLNLPKPYPIPSSLANLPYLNFLYIGGINNLVGPIPPAIAKLTQLHYLYITHTNVSGAIPDFLSQIKTLVTLDFSYNALSGTLPPSISSLPNLVGITFDGNRISGAIPDSYGSFSKLFTSMTISRNRLTGKIPPTFANLNLAFVDLSRNMLEGDASVLFGSDKNTEKIHLAKNSLAFDLGKVGLSKNLNGLDLRNNRIYGTLPQGLTQLKFLHSLNVSFNNLCGEIPQGGNLQRFDVSAYANNKCLCGSPLPACT
B3: PvPGIP2.Q224K (natural protein)
chain: ELCNPQDKQALLQIKKDLGNPTTLSSWLPTTDCCNRTWLGVLCDTDTQTYRVNNLDLSGLNLPKPYPIPSSLANLPYLNFLYIGGINNLVGPIPPAIAKLTQLHYLYITHTNVSGAIPDFLSQIKTLVTLDFSYNALSGTLPPSISSLPNLVGITFDGNRISGAIPDSYGSFSKLFTSMTISRNRLTGKIPPTFANLNLAFVDLSRNMLEGDASVLFGSDKNTKKIHLAKNSLAFDLGKVGLSKNLNGLDLRNNRIYGTLPQGLTQLKFLHSLNVSFNNLCGEIPQGGNLQRFDVSAYANNKCLCGSPLPACT

Experiments:
[1] = target: T1, FpPG.A274T (Fusarium phyllophilum)
[2] = target: T2, FpPG.S120N-N121K-S122D (Fusarium phyllophilum)
[3] = target: T3, polygalacturonase of Fusarium phyllophilum (FpPG) (Fusarium phyllophilum)
[4] = target: Polygalacturonase 1 of Colletotrichum lupini (CluPG1) strain SHK78813 (Colletotrichum lupini)
[5] = target: T4, FpPG.K310T (Fusarium phyllophilum)
[6] = target: T5, FpPG.S363K (Fusarium phyllophilum)
[7] = target: T6, FpPG.L303E (Fusarium phyllophilum)

| Binder | fold loss of inhibition by PvPGIP2 against wild type FpPG, agar diffusion assay (Figure 5A) [1] | fold reduction of the efficiency of inhibition by PvPGIP2 against wild type FpPG, agar diffusion assay (Figure 5A) [2] | amount of PGIP causing 50% inhibition of one agarose diffusion unit of the PG (agar diffusion assay) [3] | amount of PGIP causing 50% inhibition of one agarose diffusion unit of the PG (agar diffusion assay) [4] | amount of PGIP causing 50% inhibition of one agarose diffusion unit of the PG (agar diffusion assay) [5] | amount of PGIP causing 50% inhibition of one agarose diffusion unit of the PG (agar diffusion assay) [6] | amount of PGIP causing 50% inhibition of one agarose diffusion unit of the PG (agar diffusion assay) [7] | amount of PGIP causing 50% inhibition of one agarose diffusion unit of the PG (agar diffusion assay); ∞ indicates > 1500 ng [3] | amount of PGIP causing 50% inhibition of one agarose diffusion unit of the PG (agar diffusion assay); ∞ indicates > 1500 ng [5] | amount of PGIP causing 50% inhibition of one agarose diffusion unit of the PG (agar diffusion assay); ∞ indicates > 1500 ng [6] |
| --- | --- | --- | --- | --- | --- | --- | --- | --- | --- | --- |
| B1 | 150 fold | 25 fold | 2000 pg | 2500 pg | 2000 pg | 2000 pg | 2000 pg | – | – | – |
| B2 | – | – | 2000 pg | 1100 pg | 2000 pg | 2000 pg | 2000 pg | – | – | – |
| B3 | – | – | – | 2500 pg | – | – | 20000 pg | > 1.5e+06 pg | > 1.5e+06 pg | > 1.5e+06 pg |
